Test [1] has as its target fully glycosylated CmeA (g2CmeA), soluble periplasmic His6-tagged CmeA (Campylobacter jejuni) (UniProt Q0PBE3). Put plainly: SPR; g0CmeA (1,040 RU) or g2CmeA (900 RU) immobilised on a CM5 chip by amine coupling; CmeC flowed over in 2-fold dilutions from 2 × 10^-7 M; HBS-PE (10 mM HEPES pH 7.4, 3 mM EDTA, 0.005% P20), 25°C, 30 µl/min; constants are of the slow interactions only, the fast interactions could not be fitted. (In general: SPR reads the build-up and loss of mass on a sensor chip optically.)

In test [2] the target is nonglycosylated CmeA (g0CmeA), soluble periplasmic His6-tagged CmeA (Campylobacter jejuni) (UniProt Q0PBE3). The description is as above.
For test [3], the target named is CmeC (outer membrane channel of the CmeABC efflux pump) (UniProt Q0PBE5). Nature of the test: SPR (Biacore, CM5 chip). Conditions: pH 7.4; 25°C; not stated (no salt is listed in the buffer recipes); pH 7.4: 10 mM HEPES (HBS-PE); pH 6.0: 10 mM MES.

Take “CmeC, outer membrane channel of CmeABC, 10×His-tagged, expressed in E. coli (natural protein)”: in test [1], the Kd (in general, a measure of binding affinity in units of concentration) is 5 nM; the koff (as a rule, a measure of how fast the partners let go of each other) was 0.00075 s⁻¹; the kon stood at 150000 M⁻¹ s⁻¹. In addition, in test [2], the dissociation constant Kd worked out at 17 nM, the off-rate constant (koff) is 0.00085 s⁻¹ and the kon came to 50000 M⁻¹ s⁻¹.
In the case of “g0CmeA (non-glycosylated CmeA, periplasmic fusion protein of the CmeABC efflux pump)”, in test [3], the koff is recorded as 8.5 ± 1.0 × 10^–4 s^–1 and the kon was 5.0 ± 0.8 × 10^4 (M^–1 s^–1).
For g2CmeA (fully N-glycosylated CmeA) the same measures were 7.5 ± 0.6 × 10^–4 s^–1 and 1.5 ± 0.04 × 10^5 (M^–1 s^−1).

The values above are taken from publication PMC7683400.
